“And” between values parts separate entries of the source, which are not always exact repeats. Equal values may be shown once.

The target of data set [1] is transmembrane domain of p7b (p7b-TM) (SARS-CoV). Briefly: AUC.
Data set [2] shares this target. The data set is described as follows: AUC. This is another data set of the same source.
For data set [3] the target is unchanged. Briefly: SDS-PAGE.
The data set “AUC” concerns the molecule itself. The data set is described as follows: AUC.
The data set “SDS-PAGE” concerns the molecule itself. Briefly: SDS-PAGE.

By stoichiometry N is commonly meant the number of molecules, sites or subunits per partner or assembly. For the molecule “transmembrane domain of p7b (p7b-TM) (domain or fragment)”, the stoichiometry N is 2 in data set [1], 4 in data set [2] and 2 in data set [3].
Turning to MNELTLIDFYLCFLAFLLFLVLIMLIIFWFSLEIQDLEEPCTKV (natural protein, also called SARS p7b; SARS 7b) [SARS-CoV accessory protein 7b], in “AUC”, the “stoichiometry N” value was 4 and 2.
As for MIELSLIDFYLCFLAFLLFLVLIMLIIFWFSLELQDHNETCHA (natural protein, also called SARS-2 p7b; SARS-2 7b) [SARS-CoV-2 accessory protein 7b], the “stoichiometry N” value was 4 in “AUC” and 2 in the data set “SDS-PAGE”.
